In article PMC12365249:

Target: FOXA1 (UniProt P55317)
Assay: endogenous co-IP with FOXA1 antibody
Conditions: reference: wild type; sites T603

binding against the reference: stronger
Substance: MED15 (from UniProt Q96RN5) T603A knock-in
